Source: patent US9217011B2, “Non-natural proteinaceous scaffold made of three non-covalently associated peptides” (Complix NV, priority 2007, dated 2015)
Like-named read-outs stand apart in the source and are kept apart here.

Assay type: physicochemical
Conditions: for reversibility of thermal unfolding (up and down scan): CD signal as a function of temperature, about 1 degree Celsius per minute; for alpha-helical secondary structure from CD spectrum: 292 microM, pH 7.2
Method: The said synthesized peptide was dissolved at a concentration of 292 microM in 20 mM phosphate buffer (PBS), 150 mM NaCl, pH 7.2. The CD spectra were measured between […], at 5 and 90 degrees Celsius (FIG. 3).
To analyse whether the temperature-induced transition between helical and nonhelical states was reversible, a forward (up) and backward (down) thermal scan was performed on the same sample, by recording the CD signal at […] as a function of temperature at a scanning rate of about 1 degree Celsius per minute (FIG. 4).
It was further analyzed whether the thermal unfolding curve of FIG. 4 conformed to the thermodynamic equations describing the equilibrium folding/unfolding reaction between three molecules free (monomeric) peptide and one entity of folded (trimeric) complex. This reaction is generally written as 3 peptide <=> peptide3
[formula] [formula] [formula] and • T≡the temperature, in degrees Kelvin, of the sample • θ(T)≡the CD-signal [theta]222 nm, in deg cm^2 dmol^−1, as a function of T • θM(T)≡the CD-signal for 100% free (monomeric) peptide as a function of T • θT(T)≡the CD-signal for 100% associated (trimeric) peptide as a function of T • Tt≡the transition temperature, where 50% of the total peptide concentration is associated • ΔHt≡the enthalpy difference, in kJ per mole peptide, between mono- and trimeric states • ΔCp≡the heat capacity difference, in J mol^−1 K^−1, between mono- and trimeric states • R≡the ideal (universal) gas constant≡8.31 J mol^−1 K^−1
FIG. 5 represents fitting of a theoretic equation for trimeric association to experimental data. The experimental data are taken from FIG. 4, curve labeled “UP”. The theoretic equations used are listed supra. The fitted parameters (fitting results) are listed at the right in FIG. 5. “Transit. T” corresponds to Tt, but is expressed here in degrees Celsius. The parameter “delta Cp” was kept constant at 3.0 kJ mol^−1 K^−1. The parameters “thetaM(T)” and “thetaT(T)” were treated as linear functions of T, resulting in the white straight lines described by the respective offsets and slopes indicated at the right in the figure. “RMS Resid.” refers to the root-mean-square of the differences between experimental and theoretic data points. The fitted (theoretic) curve itself is plotted in white on the figure and coincides over the entire temperature range with the experimental data points shown in black.

| Substance | thermal stability (in words) | reversibility of thermal unfolding (up and down scan) | temperature up to which the peptide did not quantitatively unfold (thermal CD scan) | estimated transition temperature (thermal denaturation curve, same conditions as Example 3 (292 microM, 20 mM phosphate buffer, 150 mM NaCl, pH 7.2), transition incomplete) | alpha-helical secondary structure from CD spectrum (5 degrees Celsius) | alpha-helical secondary structure from CD spectrum (90 degrees Celsius) |
| --- | --- | --- | --- | --- | --- | --- |
| Ac-MSIEEIQKQIAAIQKQIAAIQKQIYRMTP-NH2 [Q2aI] | extremely thermostable | full reversibility | ≥ 95 degrees Celsius | around 97 degrees Celsius |  |  |
| Ac-MSIEEIQKQQAAIQKQIAAIQKQIYRMTP-NH2 [Q2a] | moderately stable | up and down scans almost perfectly coincided |  |  | high alpha-helical secondary structure content | greatly, but not completely, lost |
